Source: the supplement of paper PMC10724198
± gives the standard deviation of the averaged measurements.

tested on: Saccharomyces cerevisiae; experiment: protein stability index of tFT-peptide fusion (C-terminal peptide) (PSI (0-1 scale)); higher = more stable (slower turnover); details: genetic background: wild type; temperature: 30 C
Method: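 Multiplexed protein stability (MPS) profiling in S. cerevisiae. Random 12-aa peptides (tFT-X12 library) are fused to the C-terminus of a sfGFP-mCherry tandem fluorescent timer, after mCherry and a GGGS linker. Cells are FACS-sorted into 8 mCherry/sfGFP bins and deep-sequenced. The protein stability index (PSI) is the read-weighted bin average, scaled from 0 (unstable) to 1 (stable). Only peptides with >10 reads are reported; cells were grown at 30 °C in SC-His with glucose.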
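Note: PSI is a weighted mean of sequencing reads over stability bins, variants kept only with over 10 reads, mCherry proximal and sfGFP distal, peptide attached via GGGS linker.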

In order of rising protein stability index:
1. EETTSNLGLKVN  0.5617 ± 0.0014
2. ELLSCGCCMVQS  0.5622 ± 0.0025
3. DRVLRGAIWVSV  0.571 ± 0.045
4. EQSLRHKCRPSV  0.596 ± 0.014
5. DLVQFATEILMI  0.612 ± 0.0064
6. DIKAISVKYTIQ  0.6127 ± 0.0056
7. EATIVGLSYRTL  0.617 ± 0.032
8. EATCSPCPTRVV  0.621 ± 0.012
9. DESRVYLSIALL  0.623 ± 0.035
10. DYHPPRRMKEAG  0.625 ± 0.028
11. EQNKQPEKETYN  0.625 ± 0.076
12. EQLRLQSIECGE  0.631 ± 0.0073
13. DKGWRTRKVKDE  0.632 ± 0.03
14. DSVGGVLGRGAR  0.633 ± 0.022
15. DPRVLPPPPRLP  0.637 ± 0.02
16. EGYGPSVRYRRS  0.639 ± 0.084
17. DPTPLKSLVTRP  0.64 ± 0.04
18. DVNSNYNVGEQR  0.64 ± 0.012
19. EGDGQVWGGQGG  0.644 ± 0.0078
20. EPIMVKKACTDG  0.645 ± 0.029
21. DEANFHGCYYGV  0.647 ± 0.041
22. DGGVGRALEHGE  0.652 ± 0.0083
23. EGDRLVKEVGEE  0.654 ± 0.12
24. DQTKMKKIAKVE  0.655 ± 0.044
25. DLKIKKNDKKKK  0.658 ± 0.0086
26. DICFTPGVVNAS  0.6587 ± 0.0038
27. DWAGGKMESVYR  0.66 ± 0.011
28. EEMMEWKKREEK  0.6596 ± 0.0009
29. EGEGAGRWCGRG  0.66 ± 0.051
30. EGSLHLHLSLST  0.66 ± 0.029
31. DLYVADNCPNSP  0.662 ± 0.1
32. DQGMSDVYPDCW  0.662 ± 0.011
33. ELNGLSLVRKKK  0.662 ± 0.021
34. EGIDFVDQRLLS  0.663 ± 0.005
35. EIHKDSNTENIK  0.663 ± 0.0031
36. EKKIDPTVKEGK  0.663 ± 0.0094
37. DSFPAGVLVQSK  0.664 ± 0.017
38. DVHGETRGYGIQ  0.665 ± 0.019
39. EGTPLTIQRIGE  0.666 ± 0.094
40. ERIIGNRCYVRK  0.666 ± 0.039
41. DMAPNSQKGRAL  0.668 ± 0.028
42. DSYELGICCSSS  0.6678 ± 0.0019
43. EKKNMRYKTVEI  0.668 ± 0.066
44. EIKKKKSQTKKT  0.67 ± 0.085
45. EMEHANDARRVS  0.67 ± 0.015
46. DKSYKTYSVKGQ  0.6707 ± 0.0018
47. DLSRSPAPPAPL  0.6706 ± 0.0014
48. DVGGRGAGGGSA  0.672 ± 0.0076
49. DHRELPRSRIGT  0.673 ± 0.015
50. EKSRSLACQHST  0.6725 ± 0.0052
51. ERRKSKRKNENE  0.674 ± 0.0084
52. DLARSLVQSLSG  0.675 ± 0.017
53. DLVSVVGRGIVL  0.675 ± 0.026
54. ERSRKVSWRFIR  0.6746 ± 0.0033
55. EGEVGGRWCGRG  0.676 ± 0.046
56. EGWRWEGGVWEG  0.676 ± 0.022
57. DVRTLGTRVMGW  0.6769 ± 0.0057
58. ELHPPIPYPSRP  0.6773 ± 0.0047
59. DLGWGRWYVVVG  0.678 ± 0.0083
60. DSGVGLARSARG  0.678 ± 0.018
61. DGVRCCTKWTCA  0.679 ± 0.013
62. DGWSEAGQGGKG  0.679 ± 0.034
63. DSVYYVYRSTRV  0.679 ± 0.044
64. EPGREKRRIVQK  0.679 ± 0.042
65. DKRRSMSGGNMD  0.68 ± 0.024
66. ECPLPPCPPLST  0.68 ± 0.0098
67. EGSEAYQWETLG  0.681 ± 0.038
68. ERGKREMRKNLT  0.681 ± 0.018
69. ELSCMDGPLLCP  0.683 ± 0.059
70. ERGKRKASHRRR  0.683 ± 0.041
71. DGPALWPRSVVD  0.684 ± 0.1
72. ELSPLSYRNRTA  0.6835 ± 0.001
73. DHKKNKIKKKKE  0.685 ± 0.097
74. DVFCRPRCFRRG  0.686 ± 0.041
75. EITKVKDNEKIN  0.686 ± 0.12
76. DKPRKVLPNENS  0.6871 ± 0.0017
77. DVVDGCGGRYGW  0.687 ± 0.029
78. DVLFFSALKAHR  0.6881 ± 0.003
79. EGDKGGGEQKRQ  0.688 ± 0.031
80. EGRRAGRVGTQV  0.688 ± 0.024
81. DFYSLAWHFWFL  0.69 ± 0.073
82. DGLQNACVFMSG  0.6906 ± 0.0025
83. DGQNPVAFGSHG  0.691 ± 0.057
84. DTPIGMPLNVTR  0.691 ± 0.061
85. DRASLAGPRSLP  0.692 ± 0.032
86. DRNKINYYKGGI  0.694 ± 0.031
87. EDLVREKRKCEK  0.694 ± 0.043
88. DGCSWRSGLVWL  0.69506 ± 0.00062
89. DSFAIFFDWPAC  0.695 ± 0.0092
90. EGSVGRRGHCVR  0.6959 ± 0.0055
91. DSWMKRPNKGQE  0.698 ± 0.058
92. EKRKNKKYKNKM  0.698 ± 0.049
93. DPPHPPPSPLPA  0.699 ± 0.02
94. DRPSTNPISNVG  0.699 ± 0.015
95. DVLGCHRCLGFC  0.699 ± 0.021
96. ELCWCSKDNCYP  0.6993 ± 0.0059
97. ERYKHKKMKNNE  0.699 ± 0.097
98. EAHGQQESRCEQ  0.7 ± 0.055
99. EGGTGCLAMSVG  0.7 ± 0.012
100. DPAIHPNYKVAG  0.701 ± 0.053
101. ECGLRAAKPVWI  0.702 ± 0.063
102. EGDGQGWGGQGG  0.702 ± 0.03
103. ELKGHIPFTLSR  0.703 ± 0.04
104. DILACAPCRRGP  0.704 ± 0.022
105. ELGTDGSQKRAA  0.7045 ± 0.0053
106. DRTITPSSVISL  0.705 ± 0.047
107. EFKLINLETQRC  0.706 ± 0.017
108. ESRRKRRVAGPN  0.7072 ± 0.0066
109. ESGRGGVGVGWG  0.709 ± 0.096
110. DVVLFQLGSELV  0.712 ± 0.013
111. EFPPPPSSRSCA  0.712 ± 0.013
112. DIEKRNKRGVCV  0.714 ± 0.058
113. EPEPALTSAPPA  0.715 ± 0.023
114. EEREKKWKGKGK  0.718 ± 0.035
115. DRVGGDWMERGG  0.719 ± 0.036
116. EEHWDCEYVAFH  0.719 ± 0.015
117. DLEDPAETPNIF  0.72 ± 0.033
118. DQSYPTPPSRID  0.721 ± 0.01
119. ECVRWFKNTDRL  0.721 ± 0.032
120. DPTVIKNQTWFG  0.722 ± 0.05
121. EKSGKDKRKNEI  0.723 ± 0.062
122. EGGFGSVLGGRG  0.724 ± 0.058
123. ELRFRGITRTTV  0.725 ± 0.052
124. ESAARGWSSGVG  0.726 ± 0.079
125. ESLMYGYWGFAR  0.727 ± 0.045
126. DSSPSPYPRPPP  0.729 ± 0.054
127. DVYMWVVPNFTD  0.729 ± 0.037
128. DGCGFIGLSLLE  0.731 ± 0.079
129. DHLVLSGPPPPV  0.733 ± 0.056
130. DLHFAVVFPISR  0.733 ± 0.013
131. EFMRHAFTPLPT  0.733 ± 0.041
132. ELIDGKLLRHRQ  0.733 ± 0.061
133. ENQGQKKKKKKR  0.733 ± 0.12
134. DSSPGSHPPHRG  0.736 ± 0.053
135. EETRLQEVNRIL  0.737 ± 0.033
136. EEEAETRHSMVY  0.738 ± 0.041
137. ELFHVGQLNSHE  0.738 ± 0.12
138. EPDISTRGPGWT  0.74 ± 0.026
139. DSHEEGVSVAPA  0.749 ± 0.034
140. EFRWVASGDLLS  0.749 ± 0.017
141. EREGGWEVNKWR  0.757 ± 0.079
142. EKLKTKEEKKTR  0.759 ± 0.054
143. ERRQADRHRTTP  0.766 ± 0.05
144. EKGRGGIGSRGK  0.768 ± 0.064
145. DYHWPFIRTATE  0.774 ± 0.027
146. DLLPGAGRDSRL  0.775 ± 0.21
147. ENERRESLTMVR  0.786 ± 0.1
148. DFLSLPPISPLL  0.787 ± 0.15
149. ESAVHRTRRIPY  0.7888 ± 0.0046
150. DGELFPDEPFYL  0.801 ± 0.049
151. EGLTYIPCQTDC  0.812 ± 0.028
152. DPHINARERTPL  0.814 ± 0.2
153. EGGAGGGVWGLG  0.819 ± 0.11
154. DRPYTEILEFRL  0.834 ± 0.14
155. EEEQGPSENEKT  0.9714 ± 0.0082
